Legend:
HLA-B*07:02 [1] = assay: IEDB peptide-MHC binding, purified MHC/competitive/radioactivity; ≥ and ≤ were set here for values at or beyond the usual limits of such assays
HLA-A*02:01 [2] = assay: IEDB peptide-MHC binding, purified MHC/competitive/radioactivity; filed as Kd, often an IC50 or EC50 that approximates it; ≥ and ≤ were set here for values at or beyond the usual limits of such assays; settings: source organism: Human immunodeficiency virus 1
HLA-C*03:03 = assay: IEDB peptide-MHC binding, purified MHC/direct/fluorescence; filed as Kd, often an IC50 or EC50 that approximates it; ≥ and ≤ were set here for values at or beyond the usual limits of such assays; settings: source organism: Rickettsia bellii RML369-C
HLA-C*05:01 = assay: as above
HLA-B*27:03 = assay: IEDB peptide-MHC binding, purified MHC/competitive/fluorescence; filed as Kd, often an IC50 or EC50 that approximates it; ≥ and ≤ were set here for values at or beyond the usual limits of such assays
HLA-A*02:11 [3] = assay: as above; settings: source organism: Rickettsia bellii RML369-C
HLA-A*02:01 [4] = assay: as above
HLA-B*18:01 = assay: as above; settings: source organism: Rickettsia bellii RML369-C
HLA-A*03:01 [5] = assay: as above; settings: source organism: Rickettsia bellii RML369-C
HLA-B*57:01 = assay: as above
HLA-A*80:01 = assay: as above; settings: source organism: Rickettsia bellii RML369-C
HLA-A*29:02 = assay: as above; settings: source organism: Rickettsia bellii RML369-C
HLA-B*07:02 [6] = assay: IEDB peptide-MHC binding, purified MHC/direct/fluorescence; filed as Kd, often an IC50 or EC50 that approximates it; ≥ and ≤ were set here for values at or beyond the usual limits of such assays; settings: source organism: Orthohantavirus andesense
HLA-A*02:03 = assay: as above; settings: source organism: Choclo virus
HLA-A*02:11 [7] = assay: as above; settings: source organism: Choclo virus
HLA-A*03:01 [8] = assay: as above; settings: source organism: Choclo virus
HLA-A*23:01 = assay: as above; settings: source organism: Choclo virus
HLA-A*68:02 = assay: as above; settings: source organism: Choclo virus
HLA-A*02:19 = assay: as above; settings: source organism: Choclo virus
HLA-A*24:03 = assay: as above; settings: source organism: Choclo virus
HLA-A*02:16 = assay: as above; settings: source organism: Choclo virus
HLA-A*02:12 = assay: as above; settings: source organism: Choclo virus
HLA-A*69:01 = assay: IEDB peptide-MHC binding, purified MHC/competitive/fluorescence; filed as Kd, often an IC50 or EC50 that approximates it; ≥ and ≤ were set here for values at or beyond the usual limits of such assays; settings: source organism: Choclo virus
HLA-B*83:01 = assay: as above
HLA-B*39:01 = assay: as above; settings: source organism: Choclo virus
HLA-B*45:06 = assay: as above
HLA-B*15:17 = assay: as above; settings: source organism: Choclo virus
HLA-B*46:01 = assay: as above; settings: source organism: Choclo virus
HLA-B*15:42 = assay: as above
HLA-B*15:01 = assay: as above; settings: source organism: Choclo virus
HLA-B*35:01 = assay: as above; settings: source organism: Choclo virus
HLA-A*68:23 = assay: as above
HLA-A*26:01 = assay: as above; settings: source organism: Choclo virus
HLA-B*51:01 = assay: as above; settings: source organism: Choclo virus
HLA-C*06:02 = assay: IEDB peptide-MHC binding, purified MHC/direct/fluorescence; filed as Kd, often an IC50 or EC50 that approximates it; ≥ and ≤ were set here for values at or beyond the usual limits of such assays; settings: source organism: Homo sapiens
HLA-C*07:02 = assay: as above; settings: source organism: Homo sapiens
HLA-B*73:01 = assay: as above; settings: source organism: Mus musculus
HLA-A*32:15 = assay: IEDB peptide-MHC binding, purified MHC/competitive/fluorescence; filed as Kd, often an IC50 or EC50 that approximates it; ≥ and ≤ were set here for values at or beyond the usual limits of such assays; settings: source organism: Homo sapiens
HLA-A*24:02 = assay: IEDB peptide-MHC binding, purified MHC/competitive/radioactivity; ≥ and ≤ were set here for values at or beyond the usual limits of such assays; settings: source organism: Homo sapiens
[9] = source organism: Rickettsia bellii RML369-C

Sequence: FATCGIFAL
- IC50 (HLA-B*07:02 [1]; source organism: Lymphocytic choriomeningitis virus (strain Armstrong) (clone 53b)): 6.23 µM

Sequence: FPVRPQVPL
- Kd (HLA-A*02:01 [2]): ≥ 35 µM
- IC50 (HLA-B*07:02 [1]; source organism: Human immunodeficiency virus 1): 0.016 µM

Sequence: FTIGNMFSL
- Kd (HLA-C*03:03): 0.055 µM
- Kd (HLA-C*05:01; [9]): ≥ 20 µM
- Kd (HLA-B*27:03; [9]): ≥ 20 µM
- Kd (HLA-A*02:11 [3]): 0.0059 µM
- Kd (HLA-A*02:01 [4]; [9]): 0.0244 µM
- Kd (HLA-B*18:01): ≥ 20 µM
- Kd (HLA-A*03:01 [5]): ≥ 20 µM
- Kd (HLA-B*57:01; [9]): ≥ 20 µM
- Kd (HLA-A*80:01): ≥ 20 µM
- Kd (HLA-A*29:02): 0.738 µM

Sequence: LPSSSSYSY
- Kd (HLA-B*07:02 [6]): 14 µM
- Kd (HLA-A*02:03): ≥ 20 µM
- Kd (HLA-A*02:11 [7]): ≥ 20 µM
- Kd (HLA-A*03:01 [8]): ≥ 20 µM
- Kd (HLA-A*23:01): ≥ 20 µM
- Kd (HLA-A*68:02): ≥ 20 µM
- Kd (HLA-A*02:19): ≥ 20 µM
- Kd (HLA-A*24:03): ≥ 20 µM
- Kd (HLA-A*02:16): ≥ 20 µM
- Kd (HLA-A*02:12): ≥ 20 µM
- Kd (HLA-A*69:01): ≥ 20 µM
- Kd (HLA-B*83:01; source organism: Choclo virus): 0.747 µM
- Kd (HLA-B*39:01): ≥ 20 µM
- Kd (HLA-B*27:03; source organism: Choclo virus): ≥ 20 µM
- Kd (HLA-B*45:06; source organism: Choclo virus): ≥ 5 µM
- Kd (HLA-B*15:17): ≥ 20 µM
- Kd (HLA-A*02:01 [4]; source organism: Choclo virus): ≥ 20 µM
- Kd (HLA-B*46:01): ≥ 20 µM
- Kd (HLA-B*15:42; source organism: Choclo virus): ≥ 5 µM
- Kd (HLA-B*57:01; source organism: Choclo virus): ≥ 20 µM
- Kd (HLA-B*15:01): ≥ 20 µM
- Kd (HLA-B*35:01): ≤ 0.0001 µM
- Kd (HLA-A*68:23; source organism: Choclo virus): 1.6 µM
- Kd (HLA-A*26:01): ≥ 20 µM
- Kd (HLA-B*51:01): ≥ 20 µM

Sequence: MPMKGRFPI
- Kd (HLA-C*06:02): ≥ 20 µM
- Kd (HLA-C*07:02): ≥ 20 µM
- Kd (HLA-B*73:01): 6 µM
- Kd (HLA-C*05:01; source organism: Homo sapiens): ≥ 20 µM
- Kd (HLA-B*83:01; source organism: Homo sapiens): 0.069 µM
- Kd (HLA-B*45:06; source organism: Homo sapiens): ≥ 5 µM
- Kd (HLA-A*32:15): 0.295 µM
- Kd (HLA-B*15:42; source organism: Homo sapiens): ≥ 5 µM
- Kd (HLA-A*68:23; source organism: Homo sapiens): 0.271 µM

Sequence: NYARTEDFF
- IC50 (HLA-A*24:02): 0.067 µM

Sequence: TYSVSFDSLF
- IC50 (HLA-A*24:02): 0.014 µM
